These results are taken from publication doi:10.1101/2025.06.20.660733 (bioRxiv, 2025).

Where only a bound is given, the exact number is not on record here.

In experiment [1] the target is neuraminidase of A/Moscow/10/1999 (H3N2), recombinant head domain (Influenza A virus A/Moscow/10/1999 …, strain). The experiment in a line: BLI. Particulars: both partners purified.
Experiment [2] has as its target neuraminidase of A/Michigan/45/2015 (H1N1), recombinant head domain (Influenza A virus A/Michigan/45/2015 …, UniProt A0A0X9QTS2, strain). The experiment in a line: ELISA. Conditions: one partner purified.
Experiment [3] addresses neuraminidase of A/Wyoming/3/2003 (H3N2), recombinant head domain (Influenza A virus A/Wyoming/3/2003 …, UniProt Q595Z6, strain). The experiment is described as follows: cell-based or functional assay.

B1: HB420 with all SHMs reverted (Fab) (Fab, V domains shown)
VH: EVQLVQSGAEVKKPGSSVKVSCKASGGTFSSYAISWVRQAPGQGLEWMGGIIPIFGTANYAQKFQGRVTITADESTSTAYMELSSLRSEDTAVYYCARDSLPYGDQNYYYGMHVWGQGTTVTVSS
VL: QSALTQPASVSGSPGQSITISCTGTSSDVGGYNYVSWYQQHPGKAPKLMIYDVSNRPSGVSNRFSGSKSGNTASLTISGLQAEDEADYYCSSYTSNYNLVFGGGTKLTVL
The term Kd denotes the concentration at which binding is half-saturated. Regarding B1, the equilibrium dissociation constant (Kd) in experiment [1] was 1.8 nM.

B2: HB420 (human IgG1) (antibody, V domains shown)
VH: EVQLVESGAEVKKPGSSVKVSCMASGGSFGSYGFSWVRQAPGQGLEWMGGIIPLFDTPNYAQKFQGRVTITADASTSTVYMELSSLRSEDTAVYYCARDSLPYGDQNYYYGMHVWGQGTTVTVSS
VL: QSALTQPASLSGSPGQSITISCSGSSSDIGDYNYVSWYQQHPGKAPKLIIYDVTNRPSGVSDRLSGSKSGTTASLTISGLQAEDEADYYCSSYGGNYNLVFGGGTKLTVL
For B2, the binding result in experiment [2] is “no binding”. Also, in experiment [3], the “NA inhibition of recombinant NA by enzyme-linked lectin assay (ELLA), IC50” value is 0.19 µg/mL.

B3: HB420 with only light chain SHMs reverted (Fab) (Fab, V domains shown)
VH: EVQLVESGAEVKKPGSSVKVSCMASGGSFGSYGFSWVRQAPGQGLEWMGGIIPLFDTPNYAQKFQGRVTITADASTSTVYMELSSLRSEDTAVYYCARDSLPYGDQNYYYGMHVWGQGTTVTVSS
VL: QSALTQPASVSGSPGQSITISCTGTSSDVGGYNYVSWYQQHPGKAPKLMIYDVSNRPSGVSNRFSGSKSGNTASLTISGLQAEDEADYYCSSYTSNYNLVFGGGTKLTVL
For B3, the Kd in experiment [1] is less than 1 nM.

B4: HB420 fragment antigen-binding (Fab) (Fab, V domains shown)
VH: EVQLVESGAEVKKPGSSVKVSCMASGGSFGSYGFSWVRQAPGQGLEWMGGIIPLFDTPNYAQKFQGRVTITADASTSTVYMELSSLRSEDTAVYYCARDSLPYGDQNYYYGMHVWGQGTTVTVSS
VL: QSALTQPASLSGSPGQSITISCSGSSSDIGDYNYVSWYQQHPGKAPKLIIYDVTNRPSGVSDRLSGSKSGTTASLTISGLQAEDEADYYCSSYGGNYNLVFGGGTKLTVL
On to B4, for which the Kd in experiment [1] was less than 1 nM.

B5: HB420 with only heavy chain SHMs reverted (Fab) (Fab, V domains shown)
VH: EVQLVQSGAEVKKPGSSVKVSCKASGGTFSSYAISWVRQAPGQGLEWMGGIIPIFGTANYAQKFQGRVTITADESTSTAYMELSSLRSEDTAVYYCARDSLPYGDQNYYYGMHVWGQGTTVTVSS
VL: QSALTQPASLSGSPGQSITISCSGSSSDIGDYNYVSWYQQHPGKAPKLIIYDVTNRPSGVSDRLSGSKSGTTASLTISGLQAEDEADYYCSSYGGNYNLVFGGGTKLTVL
Consider B5, for which the dissociation constant (Kd) in experiment [1] is 1.1 nM.
